The test concerns the target protein A (UniProt P38507). The experiment in a line: spectral-domain phase-sensitive interferometry (SD-PSI), label-free; protein A (0.5 mg/ml) adsorbed on a dopamine layer on a glass chip (0.17 or 0.20 mm) and blocked with protein-free blocking solution; IgG solution (20 ug/ml mouse IgG; gradient of 10, 20, 30, 50 ug/ml IgG) passed through the flow chamber; PBS washes; reference path without protein A.

Turning to mouse IgG (antibody), the phase change at 20 ug/ml IgG was 0.04 rad, the thickness variation at 10 ug/ml IgG was 1.86 nm, the thickness variation at 20 ug/ml IgG is 3.76 nm and the thickness variation at 30 ug/ml IgG is 5.45 nm. The substance also displayed a thickness variation at 50 ug/ml IgG of 10.1 nm.

Values taken from PMC8983844.
